Consider 2 compounds from paper PMC6579470, “A low-potential terminal oxidase associated with the iron-only nitrogenase from the nitrogen-fixing bacterium Azotobacter vinelandii” (The Journal of Biological Chemistry, 2019).

Experiment [1] deals with Anf3 from Azotobacter vinelandii (Azotobacter vinelandii). Briefly: crystal structure; hanging-drop vapor diffusion, 25.5% PEG 4000, 170 mM ammonium sulfate, 16 °C; space group P2(1); the asymmetric unit contains a dimer.
Experiment [2] concerns the target T1, Anf3 (Azotobacter vinelandii, UniProt C1DK98).
T1 construct: gene Avin_49040; full-length anf3, N-terminal His6 tag cut off with thrombin; E. coli KRX; intertwined homodimer; cofactors contact both monomers
In words: X-ray crystal structure of the complex. The format is binding. The note with it: protein isolated with bound FAD; FAD stacks on heme; crystals at 16 °C, 25.5% PEG 4000, 170 mM ammonium sulfate.

T1 sequence (C1DK98 entry or part of it): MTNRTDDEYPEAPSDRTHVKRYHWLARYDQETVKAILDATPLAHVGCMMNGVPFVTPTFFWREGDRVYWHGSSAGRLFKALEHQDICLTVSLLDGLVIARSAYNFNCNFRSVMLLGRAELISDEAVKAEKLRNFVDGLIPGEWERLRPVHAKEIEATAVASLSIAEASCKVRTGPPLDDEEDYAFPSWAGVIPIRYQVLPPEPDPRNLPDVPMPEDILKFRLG

Broadly, the stoichiometry N is a count of units in the complex or per binding partner. Compound “Anf3 from Azotobacter vinelandii (enzyme)” gave a stoichiometry N in experiment [1] of 2.

In the case of `Cc1cc2nc3c(=O)[nH]c(=O)nc-3n(C[C@H](O)[C@H](O)[C@H](O)COP(=O)(O)OP(=O)(O)OC[C@H]3O[C@@H](n4cnc5c(N)ncnc54)[C@H](O)[C@@H]3O)c2cc1C` [FAD], the “X-ray crystal structure of the complex” value in experiment [2] is “Each monomer core is a split-barrel flavin-binding domain that binds an FAD”.
